# Measured values: patent US20060251644A1
# Like-named read-outs stand apart in the source and are kept apart here.
# B1: murine TES-C21 Fab (Fab, from another filing, V domains shown)
# VH: QVQLQQSGAELMKPGASVKISCKTTGYTFSMYWLEWVKQRPGHGLEWVGEISPGTFTTNYNEKFKAKATFTADTSSNTAYLQLSGLTSEDSAVYFCARFSHFSGSNYDYFDYWGQGTSLTVSS
# VL: DILLTQSPAILSVSPGERVSFSCRASQSIGTNIHWYQQRTDGSPRLLIKYASESISGIPSRFSGSGSGTEFTLNINSVESEDIADYYCQQSDSWPTTFGGGTKLEIK
# Assays:
# [1] = biological target: recombinant human IgE, SE44 (human) (UniProt P01854); assay: ELISA titration on plate-coated SE44 (human IgE); Fab detected with biotin-sheep anti-human Fd and Neutra-avidin-AP (Example 6)
# [2] = biological target: recombinant human IgE, SE44 (human) (UniProt P01854); assay: as above; remark: listed apart in the source
binder,measurement,setting,value
B1,EC50 (read off the curve),[1],0.05 µg/mL
same,EC50 (read off the curve),[2],0.04 µg/mL
